Source: the Human Domainome abundance scans (Beltran et al. 2025)
± gives the uncertainty stated by the source.

B1: Peripheral plasma membrane protein CASK, residues 488 to 569; numbered along this chain, O14936 (parent)
chain: VRLVQFQKNTDEPMGITLKMNELNHCIVARIMHGGMIHRQGTLHVGDEIREINGISVANQTVEQLQKMLREMRGSITFKIVP

Variants of: B1
Experiment: abundance fitness (aPCA) (normalised: wild type 0, dead -1); higher = more abundant; growth selection in yeast, the domain comes from the species named
Details: Homo sapiens

VRLVQFQKNTDEPMGITLKMNELNHCIWARIMHGGMIHRQGTLHVGDEIREINGISVANQTVEQLQKMLREMRGSITFKIVP [V28W] and VRLVQFQKNTDEPMGITLKMNELNHCIYARIMHGGMIHRQGTLHVGDEIREINGISVANQTVEQLQKMLREMRGSITFKIVP [V28Y] are within error of each other in abundance fitness: -0.931 ± 0.06 for the first, -0.779 ± 0.11 for the second.

Compared with VRLVQFQKNTDEPMGITLKMNELNHCIVCRIMHGGMIHRQGTLHVGDEIREINGISVANQTVEQLQKMLREMRGSITFKIVP [A29C], VRLVQFQKNTDEPMGITLKMNELNHCIVERIMHGGMIHRQGTLHVGDEIREINGISVANQTVEQLQKMLREMRGSITFKIVP [A29E] is higher in abundance fitness: -0.279 ± 0.064 for the first, 0.003 ± 0.038 for the second.

Going from VRLVQFQKNTDEPMGITLKMNELNHCIVFRIMHGGMIHRQGTLHVGDEIREINGISVANQTVEQLQKMLREMRGSITFKIVP [A29F] to VRLVQFQKNTDEPMGITLKMNELNHCIVGRIMHGGMIHRQGTLHVGDEIREINGISVANQTVEQLQKMLREMRGSITFKIVP [A29G], the abundance fitness rises from -0.362 ± 0.13 to -0.08 ± 0.027.

VRLVQFQKNTDEPMGITLKMNELNHCIVHRIMHGGMIHRQGTLHVGDEIREINGISVANQTVEQLQKMLREMRGSITFKIVP [A29H] and VRLVQFQKNTDEPMGITLKMNELNHCIVIRIMHGGMIHRQGTLHVGDEIREINGISVANQTVEQLQKMLREMRGSITFKIVP [A29I] are within error of each other in abundance fitness: -0.013 ± 0.078 for the first, -0.115 ± 0.066 for the second.

Going from VRLVQFQKNTDEPMGITLKMNELNHCIVKRIMHGGMIHRQGTLHVGDEIREINGISVANQTVEQLQKMLREMRGSITFKIVP [A29K] to VRLVQFQKNTDEPMGITLKMNELNHCIVLRIMHGGMIHRQGTLHVGDEIREINGISVANQTVEQLQKMLREMRGSITFKIVP [A29L], the abundance fitness falls from -0.059 ± 0.043 to -0.188 ± 0.041.

Compared with VRLVQFQKNTDEPMGITLKMNELNHCIVMRIMHGGMIHRQGTLHVGDEIREINGISVANQTVEQLQKMLREMRGSITFKIVP [A29M], VRLVQFQKNTDEPMGITLKMNELNHCIVNRIMHGGMIHRQGTLHVGDEIREINGISVANQTVEQLQKMLREMRGSITFKIVP [A29N] is lower in abundance fitness: -0.057 ± 0.047 for the first, -0.201 ± 0.087 for the second.

Going from VRLVQFQKNTDEPMGITLKMNELNHCIVPRIMHGGMIHRQGTLHVGDEIREINGISVANQTVEQLQKMLREMRGSITFKIVP [A29P] to VRLVQFQKNTDEPMGITLKMNELNHCIVQRIMHGGMIHRQGTLHVGDEIREINGISVANQTVEQLQKMLREMRGSITFKIVP [A29Q], the abundance fitness rises from -0.936 ± 0.15 to -0.008 ± 0.044.

VRLVQFQKNTDEPMGITLKMNELNHCIVRRIMHGGMIHRQGTLHVGDEIREINGISVANQTVEQLQKMLREMRGSITFKIVP [A29R] and VRLVQFQKNTDEPMGITLKMNELNHCIVSRIMHGGMIHRQGTLHVGDEIREINGISVANQTVEQLQKMLREMRGSITFKIVP [A29S] are within error of each other in abundance fitness: -0.097 ± 0.03 for the first, -0.051 ± 0.038 for the second.

VRLVQFQKNTDEPMGITLKMNELNHCIVTRIMHGGMIHRQGTLHVGDEIREINGISVANQTVEQLQKMLREMRGSITFKIVP [A29T] and VRLVQFQKNTDEPMGITLKMNELNHCIVVRIMHGGMIHRQGTLHVGDEIREINGISVANQTVEQLQKMLREMRGSITFKIVP [A29V] are within error of each other in abundance fitness: -0.069 ± 0.054 for the first, -0.11 ± 0.034 for the second.

VRLVQFQKNTDEPMGITLKMNELNHCIVWRIMHGGMIHRQGTLHVGDEIREINGISVANQTVEQLQKMLREMRGSITFKIVP [A29W] and VRLVQFQKNTDEPMGITLKMNELNHCIVYRIMHGGMIHRQGTLHVGDEIREINGISVANQTVEQLQKMLREMRGSITFKIVP [A29Y] are within error of each other in abundance fitness: -0.068 ± 0.037 for the first, -0.198 ± 0.11 for the second.

VRLVQFQKNTDEPMGITLKMNELNHCIVAAIMHGGMIHRQGTLHVGDEIREINGISVANQTVEQLQKMLREMRGSITFKIVP [R30A] and VRLVQFQKNTDEPMGITLKMNELNHCIVACIMHGGMIHRQGTLHVGDEIREINGISVANQTVEQLQKMLREMRGSITFKIVP [R30C] are within error of each other in abundance fitness: 0.008 ± 0.034 for the first, -0.055 ± 0.062 for the second.

VRLVQFQKNTDEPMGITLKMNELNHCIVADIMHGGMIHRQGTLHVGDEIREINGISVANQTVEQLQKMLREMRGSITFKIVP [R30D] and VRLVQFQKNTDEPMGITLKMNELNHCIVAEIMHGGMIHRQGTLHVGDEIREINGISVANQTVEQLQKMLREMRGSITFKIVP [R30E] are within error of each other in abundance fitness: -0.012 ± 0.063 for the first, 0.027 ± 0.036 for the second.

VRLVQFQKNTDEPMGITLKMNELNHCIVAFIMHGGMIHRQGTLHVGDEIREINGISVANQTVEQLQKMLREMRGSITFKIVP [R30F] and VRLVQFQKNTDEPMGITLKMNELNHCIVAGIMHGGMIHRQGTLHVGDEIREINGISVANQTVEQLQKMLREMRGSITFKIVP [R30G] are within error of each other in abundance fitness: -0.083 ± 0.1 for the first, -0.005 ± 0.024 for the second.

Going from VRLVQFQKNTDEPMGITLKMNELNHCIVAHIMHGGMIHRQGTLHVGDEIREINGISVANQTVEQLQKMLREMRGSITFKIVP [R30H] to VRLVQFQKNTDEPMGITLKMNELNHCIVAIIMHGGMIHRQGTLHVGDEIREINGISVANQTVEQLQKMLREMRGSITFKIVP [R30I], the abundance fitness falls from 0.037 ± 0.057 to -0.372 ± 0.087.

Compared with VRLVQFQKNTDEPMGITLKMNELNHCIVAKIMHGGMIHRQGTLHVGDEIREINGISVANQTVEQLQKMLREMRGSITFKIVP [R30K], VRLVQFQKNTDEPMGITLKMNELNHCIVALIMHGGMIHRQGTLHVGDEIREINGISVANQTVEQLQKMLREMRGSITFKIVP [R30L] is lower in abundance fitness: 0.069 ± 0.047 for the first, -0.283 ± 0.035 for the second.

Compared with VRLVQFQKNTDEPMGITLKMNELNHCIVAMIMHGGMIHRQGTLHVGDEIREINGISVANQTVEQLQKMLREMRGSITFKIVP [R30M], VRLVQFQKNTDEPMGITLKMNELNHCIVANIMHGGMIHRQGTLHVGDEIREINGISVANQTVEQLQKMLREMRGSITFKIVP [R30N] is higher in abundance fitness: -0.112 ± 0.046 for the first, 0.012 ± 0.063 for the second.

First: VRLVQFQKNTDEPMGITLKMNELNHCIVAPIMHGGMIHRQGTLHVGDEIREINGISVANQTVEQLQKMLREMRGSITFKIVP [R30P]
Second: VRLVQFQKNTDEPMGITLKMNELNHCIVAQIMHGGMIHRQGTLHVGDEIREINGISVANQTVEQLQKMLREMRGSITFKIVP [R30Q]
The abundance fitness of the first is lower: -1.11 ± 0.23 for the first, -0.013 ± 0.045 for the second.
